Reference: patent publication US20090062228, “piRNA and uses related thereto” (published 2009)

Key:
Argonaute 3 (Ago3) = target: T1, Argonaute 3 (Ago3) (Drosophila melanogaster, UniProt Q7PLK0 SEQ:1-867); experiment: RNA cloned and sequenced from Ago3 immunoprecipitate of ovary extract; A at position 10; conditions: tags: none; endogenous RNP immunopurified from ovary lysate
T1 sequence: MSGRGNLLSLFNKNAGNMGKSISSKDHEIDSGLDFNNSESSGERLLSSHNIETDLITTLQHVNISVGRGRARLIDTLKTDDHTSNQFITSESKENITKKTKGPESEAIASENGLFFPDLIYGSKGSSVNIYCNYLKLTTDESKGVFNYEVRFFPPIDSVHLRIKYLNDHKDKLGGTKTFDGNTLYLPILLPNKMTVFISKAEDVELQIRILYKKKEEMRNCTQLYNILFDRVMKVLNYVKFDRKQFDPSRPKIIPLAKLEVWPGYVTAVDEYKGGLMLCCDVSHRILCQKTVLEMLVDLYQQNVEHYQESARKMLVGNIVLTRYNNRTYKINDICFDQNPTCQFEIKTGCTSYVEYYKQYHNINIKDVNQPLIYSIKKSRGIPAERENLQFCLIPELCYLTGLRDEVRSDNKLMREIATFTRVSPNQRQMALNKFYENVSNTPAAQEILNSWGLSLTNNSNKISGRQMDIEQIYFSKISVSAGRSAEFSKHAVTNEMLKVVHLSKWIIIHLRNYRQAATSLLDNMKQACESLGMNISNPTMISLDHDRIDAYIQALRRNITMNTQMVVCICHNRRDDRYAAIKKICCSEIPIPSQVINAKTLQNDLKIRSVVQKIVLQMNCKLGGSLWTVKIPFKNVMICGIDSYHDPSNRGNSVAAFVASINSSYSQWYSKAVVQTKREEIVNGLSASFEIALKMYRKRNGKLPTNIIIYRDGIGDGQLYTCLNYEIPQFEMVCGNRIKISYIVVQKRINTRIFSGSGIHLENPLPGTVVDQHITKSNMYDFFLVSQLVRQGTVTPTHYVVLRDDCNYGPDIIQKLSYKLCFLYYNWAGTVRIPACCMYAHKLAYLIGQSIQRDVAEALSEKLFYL
Experimental: (§1) Ovaries were dissected into ice cold PBS, flash frozen in liquid nitrogen and stored at −80 degrees. Ovary extract was prepared in Lysis buffer (20 mM HEPES-NaOH pH 7.0, 150 mM NaCl, 2.5 mM MgCl2, 250 mM Sucrose, 0.05% NP40, 0.5% Triton X-100. 1× Roche-Complete EDTA free) using a glass dounce homogenizer. Extracts were cleared by several spins at 14000 rpm. Extracts (10 microgram/microliter) were incubated with primary antibodies (1:50) for 4 h at 4 degrees per ml of extract. Fifteen microliters of Protein-G Sepharose (Roche) were added and mixtures were further incubated for 1 h at 4 degrees. Beads were washed 4 times in lysis buffer. RNA extraction from beads and 5′ labeling of RNAs was done as described in (Aravin et al., 2006)

Aubergine (Aub) = target: T2, Aubergine (Aub) (Drosophila melanogaster, UniProt O76922 SEQ:1-866); experiment: RNA cloned and sequenced from Aub immunoprecipitate of ovary extract; 5'U; conditions: tags: none; endogenous RNP immunopurified from ovary lysate
T2 sequence: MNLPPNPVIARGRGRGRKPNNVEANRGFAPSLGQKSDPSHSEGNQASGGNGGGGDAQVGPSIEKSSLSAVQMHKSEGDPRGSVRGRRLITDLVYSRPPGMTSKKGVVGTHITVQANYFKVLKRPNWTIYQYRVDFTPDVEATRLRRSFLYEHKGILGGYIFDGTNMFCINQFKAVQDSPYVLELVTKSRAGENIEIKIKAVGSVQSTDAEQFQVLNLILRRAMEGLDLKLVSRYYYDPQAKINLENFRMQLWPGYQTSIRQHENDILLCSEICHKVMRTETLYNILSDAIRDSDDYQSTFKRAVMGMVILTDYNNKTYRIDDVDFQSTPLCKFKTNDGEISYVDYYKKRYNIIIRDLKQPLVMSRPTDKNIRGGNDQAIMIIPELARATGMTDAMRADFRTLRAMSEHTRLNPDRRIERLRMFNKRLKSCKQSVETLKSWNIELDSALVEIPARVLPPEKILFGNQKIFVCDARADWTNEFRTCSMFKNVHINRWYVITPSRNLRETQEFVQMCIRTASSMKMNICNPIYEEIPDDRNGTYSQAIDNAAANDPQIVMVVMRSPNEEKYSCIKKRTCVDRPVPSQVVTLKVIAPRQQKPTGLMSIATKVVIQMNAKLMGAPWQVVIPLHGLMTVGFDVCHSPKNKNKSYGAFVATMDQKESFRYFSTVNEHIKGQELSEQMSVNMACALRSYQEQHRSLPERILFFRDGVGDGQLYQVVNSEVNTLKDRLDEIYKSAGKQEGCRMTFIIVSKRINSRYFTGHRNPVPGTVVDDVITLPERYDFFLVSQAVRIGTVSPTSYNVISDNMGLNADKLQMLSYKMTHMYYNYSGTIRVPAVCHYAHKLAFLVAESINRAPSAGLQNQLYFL
Experimental: as §1

B1: roo sense piRNA (ssRNA)
RNA: CCUCUGCGUAGGCCAUUUACUUUAAG
B1: binds (Argonaute 3 (Ago3)).

B2: roo antisense piRNA (ssRNA)
RNA: UACGCAGAGGCCUAAGUAAAUAGUC
B2: binds (Aubergine (Aub)).
